Reference: the supplement of paper PMC9876800

Tested on: peptide library, one residue held at a place counted from the S/T acceptor
Assay: relative phosphorylation of the sub-library (ratio to the mean residue at this position); higher = residue favoured
Details: human
How it was run: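 Relative sub-library phosphorylation is the ratio of each sub-library's signal to the mean residue at that position. The signal came from phosphorimaging of spots on streptavidin membranes, quantified by densitometry, after purified recombinant kinases reacted with biotinylated degenerate peptide sub-libraries in 384-well plates. Reactions held 50 μM peptide and 50 μM ATP spiked with γ-32P-ATP for 90 min under kinase-specific conditions.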

Chain of PNCK, construct: Full length (Q6P2M8 whole entry, looked up): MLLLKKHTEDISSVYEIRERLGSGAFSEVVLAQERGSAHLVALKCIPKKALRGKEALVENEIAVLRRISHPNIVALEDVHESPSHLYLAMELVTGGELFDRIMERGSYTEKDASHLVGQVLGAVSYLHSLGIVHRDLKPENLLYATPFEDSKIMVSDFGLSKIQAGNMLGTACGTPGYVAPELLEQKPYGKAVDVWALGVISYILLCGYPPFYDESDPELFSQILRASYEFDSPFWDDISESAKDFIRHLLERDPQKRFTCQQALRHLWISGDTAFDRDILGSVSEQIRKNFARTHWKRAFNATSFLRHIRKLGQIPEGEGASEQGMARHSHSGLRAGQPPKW
Chain of PLK1, construct: Full length (P53350 whole entry, looked up): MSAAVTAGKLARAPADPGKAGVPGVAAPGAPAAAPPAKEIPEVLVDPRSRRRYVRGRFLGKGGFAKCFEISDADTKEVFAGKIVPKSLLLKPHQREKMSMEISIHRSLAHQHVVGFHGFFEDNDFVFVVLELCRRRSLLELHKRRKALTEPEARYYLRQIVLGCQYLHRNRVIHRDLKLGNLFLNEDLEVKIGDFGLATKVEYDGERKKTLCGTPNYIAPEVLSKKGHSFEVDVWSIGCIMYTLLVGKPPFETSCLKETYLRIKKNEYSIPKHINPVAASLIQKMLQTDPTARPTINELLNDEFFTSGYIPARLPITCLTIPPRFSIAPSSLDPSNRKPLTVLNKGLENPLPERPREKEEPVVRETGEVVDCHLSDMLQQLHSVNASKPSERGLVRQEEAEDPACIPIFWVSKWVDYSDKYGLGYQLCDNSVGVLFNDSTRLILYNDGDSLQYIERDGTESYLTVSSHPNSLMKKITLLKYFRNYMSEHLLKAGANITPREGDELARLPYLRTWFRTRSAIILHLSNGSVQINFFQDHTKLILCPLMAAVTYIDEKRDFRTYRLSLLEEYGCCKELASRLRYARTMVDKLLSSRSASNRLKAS

PKN1, construct: aa460-982 (from UniProt Q16512)
relative phosphorylation
Details | at +1 | at +2 | at +3 | at +4 | at -1 | at -2 | at -3 | at -4 | at -5
A fixed | 0.528 | 0.745 | 0.906 | 1 | 1.03 | 1.13 | 0.67 | 1.01 | 0.865
D fixed | 0.183 | 0.162 | 0.281 | 0.393 | 0.581 | 0.2 | 0.126 | 0.354 | 0.262
E fixed | 0.171 | 0.149 | 0.352 | 0.372 | 0.509 | 0.254 | 0.14 | 0.536 | 0.256
F fixed | 4.71 | 0.739 | 1.14 | 0.743 | 1.03 | 0.85 | 0.456 | 1.06 | 1.19
G fixed | 0.361 | 0.397 | 0.783 | 0.98 | 1 | 0.777 | 0.412 | 1.14 | 0.789
H fixed | 0.564 | 1.34 | 1.02 | 1.22 | 1.22 | 1.16 | 0.907 | 1.03 | 0.761
I fixed | 1.26 | 0.785 | 1.04 | 0.753 | 0.535 | 0.557 | 0.407 | 0.88 | 1.6
K fixed | 0.784 | 2.16 | 1.46 | 2.04 | 1.53 | 2 | 2 | 1.73 | 1.2
L fixed | 1.13 | 1.1 | 1.06 | 0.794 | 0.973 | 0.638 | 0.455 | 0.922 | 1.84
M fixed | 2.16 | 0.896 | 1.06 | 0.819 | 1.05 | 0.89 | 0.483 | 1.07 | 0.967
N fixed | 0.483 | 0.575 | 0.629 | 0.929 | 1.16 | 0.926 | 0.315 | 0.717 | 0.49
P fixed | 0.266 | 0.297 | 0.493 | 1.4 | 1.16 | 0.347 | 0.328 | 0.59 | 0.921
Q fixed | 0.62 | 0.578 | 0.736 | 0.996 | 0.947 | 1.05 | 0.585 | 0.842 | 0.643
R fixed | 0.999 | 4.44 | 2 | 1.86 | 1.51 | 3.36 | 8.17 | 2.01 | 1.61
V fixed | 0.852 | 0.749 | 1.02 | 0.678 | 0.622 | 0.781 | 0.373 | 0.991 | 1.55
W fixed | 0.889 | 0.675 | 1.5 | 1.15 | 0.9 | 1.1 | 0.58 | 0.992 | 0.926
Y fixed | 1.04 | 1.22 | 1.53 | 0.87 | 1.24 | 0.978 | 0.6 | 1.13 | 1.14
pThr fixed | 0.476 | 0.43 | 0.412 | 0.443 | 0.302 | 0.296 | 0.259 | 0.551 | 0.368
pTyr fixed | 0.314 | 0.354 | 0.567 | 0.384 | 0.388 | 0.266 | 0.215 | 0.412 | 0.514

PLK1, construct: Full length (from UniProt P53350)
relative phosphorylation
Details | at +1 | at +2 | at +3 | at +4 | at -1 | at -2 | at -3 | at -4 | at -5
A fixed | 0.622 | 0.73 | 0.85 | 0.951 | 0.748 | 0.452 | 0.934 | 1.12 | 1.16
D fixed | 0.419 | 0.677 | 1.4 | 1.35 | 1.62 | 3.98 | 1.1 | 1.47 | 1.34
E fixed | 0.461 | 0.705 | 1.87 | 1.48 | 1.46 | 2.28 | 1.23 | 1.31 | 1.1
F fixed | 3.16 | 1.2 | 0.935 | 0.898 | 0.734 | 0.523 | 1.09 | 0.918 | 0.876
G fixed | 0.524 | 0.439 | 0.881 | 1.01 | 0.451 | 0.679 | 1.23 | 1.09 | 1.21
H fixed | 0.809 | 1.28 | 1.13 | 1.01 | 1.03 | 0.861 | 1.47 | 0.981 | 1.1
I fixed | 1.28 | 1.37 | 1.05 | 0.769 | 0.976 | 0.402 | 0.66 | 0.816 | 0.757
K fixed | 0.593 | 0.567 | 0.679 | 0.782 | 1.04 | 0.495 | 0.689 | 0.942 | 1.02
L fixed | 1.36 | 1.7 | 1.02 | 0.795 | 0.964 | 0.53 | 1.33 | 0.979 | 0.807
M fixed | 1.72 | 1.4 | 0.972 | 0.932 | 1.2 | 0.505 | 1.38 | 0.95 | 0.802
N fixed | 0.606 | 1.14 | 0.82 | 1.1 | 1.24 | 2.86 | 1.08 | 1 | 1.22
P fixed | 0.246 | 0.421 | 0.579 | 1.41 | 0.42 | 0.33 | 0.785 | 0.836 | 0.936
Q fixed | 0.856 | 0.847 | 0.982 | 0.945 | 1.17 | 0.747 | 0.857 | 0.849 | 0.842
R fixed | 0.908 | 0.959 | 0.76 | 0.813 | 1.4 | 0.641 | 0.998 | 0.961 | 1.02
V fixed | 1.06 | 1.14 | 1.02 | 0.701 | 1.03 | 0.373 | 0.552 | 0.791 | 0.813
W fixed | 0.971 | 1.05 | 1.05 | 1.09 | 0.563 | 0.636 | 0.898 | 1.16 | 1.06
Y fixed | 1.4 | 1.38 | 1 | 0.958 | 0.952 | 0.709 | 0.718 | 0.832 | 0.927
pThr fixed | 2.54 | 0.971 | 0.987 | 2.29 | 1.02 | 0.627 | 0.945 | 1.03 | 1.3
pTyr fixed | 1.02 | 1.47 | 1.67 | 1.8 | 1.98 | 0.802 | 1.01 | 0.88 | 1.33

PNCK, construct: Full length (from UniProt Q6P2M8)
relative phosphorylation
Details | at +1 | at +2 | at +3 | at +4 | at -1 | at -2 | at -3 | at -4 | at -5
A fixed | 0.986 | 1.09 | 1 | 0.953 | 0.983 | 1.03 | 0.881 | 0.95 | 0.856
D fixed | 0.844 | 1.03 | 1.2 | 1.01 | 1.07 | 0.666 | 0.626 | 0.713 | 0.718
E fixed | 0.919 | 1.03 | 1.07 | 0.985 | 0.92 | 0.678 | 0.644 | 0.803 | 0.726
F fixed | 1.37 | 0.986 | 1 | 1.07 | 0.904 | 0.687 | 0.659 | 0.921 | 1.12
G fixed | 0.879 | 0.871 | 1.01 | 1.01 | 1.01 | 0.814 | 0.678 | 0.863 | 0.833
H fixed | 0.96 | 1.28 | 1.02 | 0.93 | 1.06 | 0.826 | 0.799 | 0.921 | 0.839
I fixed | 0.869 | 1.01 | 0.851 | 1.13 | 0.785 | 0.795 | 0.741 | 1.06 | 1.12
K fixed | 1.13 | 0.889 | 0.962 | 0.927 | 1.32 | 1.88 | 1.84 | 1.7 | 1.13
L fixed | 0.866 | 0.98 | 0.913 | 1.2 | 0.826 | 0.764 | 0.694 | 1.1 | 1.56
M fixed | 0.938 | 0.893 | 0.876 | 0.982 | 0.869 | 0.855 | 0.668 | 0.986 | 1.07
N fixed | 1.06 | 0.966 | 1.26 | 0.96 | 1.41 | 0.934 | 0.732 | 0.892 | 0.822
P fixed | 0.777 | 0.914 | 0.92 | 1.07 | 1.07 | 0.641 | 0.649 | 0.787 | 0.994
Q fixed | 1.19 | 0.947 | 0.976 | 1 | 0.983 | 1.46 | 0.826 | 1.01 | 0.958
R fixed | 1.39 | 1.02 | 0.958 | 0.875 | 1.32 | 2.64 | 4.54 | 1.49 | 1.44
V fixed | 0.873 | 1.02 | 0.885 | 0.991 | 0.795 | 0.8 | 0.679 | 1.05 | 0.956
W fixed | 0.909 | 0.916 | 1.02 | 0.989 | 0.81 | 0.829 | 0.7 | 0.835 | 0.873
Y fixed | 1.02 | 1.14 | 1.08 | 0.91 | 0.86 | 0.706 | 0.644 | 0.91 | 0.973
pThr fixed | 1.16 | 1.29 | 1.1 | 1.13 | 0.832 | 0.701 | 0.723 | 0.902 | 0.774
pTyr fixed | 1.12 | 2.97 | 1.42 | 1.04 | 1.02 | 0.701 | 0.684 | 0.799 | 0.897
